In experiment [1] the target is MbTEC^PH (R28E) (Monosiga brevicollis MX1). The experiment in a line: fluorescence polarisation; fluorescence anisotropy; MbTEC^32K constructs serially diluted into 200 nM Atto488-labelled PH domain; 20 mM HEPES pH 7.4, 150 mM NaCl, 2% glycerol, 1 mM TCEP; 21 °C; one-site binding model. In general terms: In fluorescence polarisation assays a small probe gives low polarisation when free and higher when bound to something large.

Experiment [2] deals with MbTEC^PH (PH domain of Monosiga brevicollis TEC, residues 1-174), labelled with Atto488 (Monosiga brevicollis MX1). The experiment is described as above.
In experiment [3] the target is MbTEC^PH (R28E) (Monosiga brevicollis MX1). The experiment in a line: FP. As to conditions: domain or fragment.
Experiment [4] concerns the target MbTEC^PH (PH domain of Monosiga brevicollis TEC, residues 1-174), labelled with Atto488. The experiment in a line: fluorescence anisotropy. The conditions noted are these: parent: 4.0 ± 1.3 µM.

The source of these data is article PMC13648279.

As for “MbTEC^32K (SH3-SH2-kinase module of Monosiga brevicollis TEC, residues 229-667) (domain or fragment)”, the fold weakening of binding against wild-type MbTEC^PH in experiment [1] amounted to 5 fold. Also, the Kd in experiment [2] was found to be 4 µM.

Turning to “MbTEC^32K (SH3-SH2-kinase module of Monosiga brevicollis TEC, residues 229-667)”, in experiment [3], the Kd is 22.4 µM.

For the substance “MbTEC^32K (SH3-SH2-kinase module of Monosiga brevicollis TEC, residues 229-667) Y579D; R581E”, in experiment [4], the Kd was 195 µM.

As a reminder, the Kd is the free concentration of one partner at which half of the binding sites on the other are occupied at equilibrium, for simple one-to-one binding.
